Measurements as given in paper PMC8778164, “Towards Complete Tumor Resection: Novel Dual-Modality Probes for Improved Image-Guided Surgery of GRPR-Expressing Prostate Cancer” (Pharmaceutics, 2022).

Key:
GRPR = biological target: T1, GRPR (Homo sapiens, UniProt P30550); test: Competition binding assay against [111In]In-NeoB on PC-3 cells; settings: IC50 of compound over IC50 of NeoB
T1 construct: host or cells: PC-3 cells (human prostate adenocarcinoma)
Procedure: GRPR-positive human-derived prostate adenocarcinoma epithelial PC-3 cells (ATCC, Manassas, VA, USA) were cultured in Ham’s F-12K (Kaighn’s) Medium (Gibco, Paisley, UK) supplemented with 10% fetal bovine serum, penicillin (100 units/mL) and streptomycin (100 µg/mL). Cells were routinely passaged and grown in tissue culture flasks at 37 °C in a humidified atmosphere with 5% CO2.
The affinity of all six probes for GRPR was determined using a competition binding assay. PC-3 cells were seeded in 12-well plates (2.5 × 10^5 cells/well) one day prior to the experiment. The next day, cells were washed with warm Dulbecco’s phosphate-buffered saline (PBS) (Gibco). Subsequently, cells were incubated for 1 h at 37 °C with 0.5 mL incubation medium (Ham’s F-12K, 20 mM HEPES, 1% BSA, pH 7.4) containing 10^−9 M [^111In]In-NeoB, in the presence or absence of increasing concentrations (10^−12 to 10^−6 M) of one of the six unlabeled probes or NeoB (positive control). After incubation, the medium was removed and cells were washed twice with cold PBS. To determine the amount of activity that was taken up by the cells, cells were lysed using 1 M NaOH for > 20 min at rt, then collected and measured in a γ-counter. To determine the amount of radioactivity added per well, samples of the incubation medium containing 10^−9 M [^111In]In-NeoB were also measured. The results are expressed as the percentage of added dose (%AD) and were normalized to the uptake of [^111In]In-NeoB (in the absence of cold compound). Data represent the mean ± standard deviation (SD) of triplicate wells.
Statistical analysis was performed using GraphPad Prism version 5.01 (GraphPad Software Inc., San Diego, CA, USA). The half-maximal inhibitory concentration (IC50) values were estimated by the log (inhibitor) vs. the normalized response fitting routine. To compare the uptake values of the two probes studied in vivo, an unpaired t-test was used with the significance levels set at 5%. The results are represented as mean ± standard deviation (SD).

[1] = Stability in PBS at 37 °C (iTLC); type: physicochemical; settings: intact labeled ligand after incubation at 37 °C in PBS, n = 1
Procedure: (§1) Stability in PBS was determined by incubating 20 µL of the labeled compounds (∼11 MBq) in PBS (80 µL) at 37 °C. Radiochemical purity was determined by iTLC at 30 min, 1 h, 2 h and 4 h. Stability in the serum was carried out by adding 70 µL of the labeled compound (∼35 MBq) to 330 µL of mouse serum (Merck, Haarlerbergweg, The Netherlands). The mixture was incubated at 37 °C. At different time points (30 min, 1 h, 2 h and 4 h), an aliquot of the mixture (50 µL) was added to 50 µL ACN. The vial was vortexed and centrifuged at 10,000 rpm for 20 min and the supernatant was analyzed by iTLC.

[2] = Stability in mouse serum at 37 °C (iTLC); type: in vitro ADME; settings: for Stability in Mouse Serum (%) 30 min / Stability in Mouse Serum (%) 1 h / Stability in Mouse Serum (%) 2 h / Stability in Mouse Serum (%) 4 h: intact labeled ligand after incubation at 37 °C in mouse serum, n = 1
Procedure: as §1

[3] = Distribution coefficient (LogD7.4), shake-flask method; type: physicochemical; settings: n-octanol/PBS pH 7.4, n = 3; read-out: Log D7.4
Procedure: Distribution coefficients (LogD7.4) for the ^111In-labeled compounds were determined by a shake-flask method. The experiments were performed in triplicate for each radioligand. A sample containing the radioligand (0.5–2.0 MBq) was dissolved in 1 mL solution of phosphate-buffered saline (0.01 M, pH 7.4) and n-octanol (v:v = 1:1). The vials were vortexed vigorously and then centrifuged at 10,000 rpm for 3 min, for phase separation. Samples (10 μL) of each phase were taken out and analyzed using a gamma counter. LogD7.4 values were calculated, using the following equation: LogD7.4 = log {(counts in n-octanol phase)/(counts in PBS phase)}.

T1 sequence (P30550 whole entry): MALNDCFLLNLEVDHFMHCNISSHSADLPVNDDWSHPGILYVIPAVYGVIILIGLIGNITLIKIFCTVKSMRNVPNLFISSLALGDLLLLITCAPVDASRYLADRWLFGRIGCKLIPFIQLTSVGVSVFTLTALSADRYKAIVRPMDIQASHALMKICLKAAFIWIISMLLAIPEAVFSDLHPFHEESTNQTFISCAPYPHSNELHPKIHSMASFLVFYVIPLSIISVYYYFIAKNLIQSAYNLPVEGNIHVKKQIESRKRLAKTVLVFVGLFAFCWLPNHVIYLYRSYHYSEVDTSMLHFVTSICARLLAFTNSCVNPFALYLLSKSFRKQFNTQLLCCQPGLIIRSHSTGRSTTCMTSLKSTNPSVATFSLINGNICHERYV

Q: Which “Ratio Compound/NeoB (IC50)” value (GRPR) does the source give for `CC(C)CC(CC(C)C)NC(=O)[C@H](Cc1c[nH]cn1)NC(=O)CNC(=O)[C@@H](NC(=O)[C@H](C)NC(=O)[C@H](Cc1c[nH]c2ccccc12)NC(=O)[C@H](CCC(N)=O)NC(=O)[C@@H](Cc1ccccc1)NC(=O)COCC(=O)Nc1ccc(CNC(=O)OC2CCCC3C=NN=C(c4ccc(CNC(=O)CCCCC[N+]5=C(/C=C/C=C/C=C6N(C)c7ccc(S(=O)(=O)O)cc7C6(C)C)C(C)(C)c6cc(S(=O)(=O)[O-])ccc65)cc4)C3CC2)cc1)C(C)C` (some centres unmarked) [Compound 10] here?
A: 12.9

Q: With `CC(C)CC(CC(C)C)NC(=O)[C@H](Cc1c[nH]cn1)NC(=O)CNC(=O)[C@@H](NC(=O)[C@H](C)NC(=O)[C@H](Cc1c[nH]c2ccccc12)NC(=O)[C@H](CCC(N)=O)NC(=O)[C@@H](Cc1ccccc1)NC(=O)CCOCCOCCOCCOCCNC(=O)OC1CCCC2C=NN=C(c3ccc(CNC(=O)CCCCC[N+]4=C(/C=C/C=C/C=C5N(C)c6ccc(S(=O)(=O)O)cc6C5(C)C)C(C)(C)c5cc(S(=O)(=O)[O-])ccc54)cc3)C2CC1)C(C)C` (some centres unmarked) [Compound 11] as the molecule, how does the “Ratio Compound/NeoB (IC50)” value (GRPR) read?
A: 4.5

Q: With `CC(C)CC(CC(C)C)NC(=O)[C@H](Cc1c[nH]cn1)NC(=O)CNC(=O)[C@@H](NC(=O)[C@H](C)NC(=O)[C@H](Cc1c[nH]c2ccccc12)NC(=O)[C@H](CCC(N)=O)NC(=O)[C@@H](Cc1ccccc1)NC(=O)COCC(=O)Nc1ccc(CNC(=O)[C@H](CCCCNC(=O)CCOCCOCCOCCOCCNC(=O)OC2CCCC3C=NN=C(c4ccc(CNC(=O)CCCCC[N+]5=C(/C=C/C=C/C=C6N(C)c7ccc(S(=O)(=O)O)cc7C6(C)C)C(C)(C)c6cc(S(=O)(=O)[O-])ccc65)cc4)C3CC2)NC(=O)CN2CCN(CC(=O)O)CCN(CC(=O)O)CCN(CC(=O)O)CC2)cc1)C(C)C` (some centres unmarked) [Compound 12] as the molecule, how does the “Ratio Compound/NeoB (IC50)” value (GRPR) read?
A: 9.1

Q: For `CC(C)CC(CC(C)C)NC(=O)[C@H](Cc1c[nH]cn1)NC(=O)CNC(=O)[C@@H](NC(=O)[C@H](C)NC(=O)[C@H](Cc1c[nH]c2ccccc12)NC(=O)[C@H](CCC(N)=O)NC(=O)[C@@H](Cc1ccccc1)NC(=O)CCOCCOCCOCCOCCNC(=O)[C@H](CCCCNC(=O)CCOCCOCCOCCOCCNC(=O)OC1CCCC2C=NN=C(c3ccc(CNC(=O)CCCCC[N+]4=C(/C=C/C=C/C=C5N(C)c6ccc(S(=O)(=O)O)cc6C5(C)C)C(C)(C)c5cc(S(=O)(=O)[O-])ccc54)cc3)C2CC1)NC(=O)CN1CCN(CC(=O)O)CCN(CC(=O)O)CCN(CC(=O)O)CC1)C(C)C` (some centres unmarked) [Compound 13], which “Ratio Compound/NeoB (IC50)” value (GRPR) is on record?
A: 18.2

Q: For `CC(C)CC(CC(C)C)NC(=O)[C@H](Cc1c[nH]cn1)NC(=O)CNC(=O)[C@@H](NC(=O)[C@H](C)NC(=O)[C@H](Cc1c[nH]c2ccccc12)NC(=O)[C@H](CCC(N)=O)NC(=O)[C@@H](Cc1ccccc1)NC(=O)COCC(=O)Nc1ccc(CNC(=O)[C@H](CCCCNC(=O)OC2CCCC3C=NN=C(c4ccc(CNC(=O)CCCCC[N+]5=C(/C=C/C=C/C=C6N(C)c7ccc(S(=O)(=O)O)cc7C6(C)C)C(C)(C)c6cc(S(=O)(=O)[O-])ccc65)cc4)C3CC2)NC(=O)CN2CCN(CC(=O)O)CCN(CC(=O)O)CCN(CC(=O)O)CC2)cc1)C(C)C` (some centres unmarked) [Compound 14], which “Ratio Compound/NeoB (IC50)” value (GRPR) is on record?
A: 24.6

Q: For `CC(C)CC(CC(C)C)NC(=O)[C@H](Cc1c[nH]cn1)NC(=O)CNC(=O)[C@@H](NC(=O)[C@H](C)NC(=O)[C@H](Cc1c[nH]c2ccccc12)NC(=O)[C@H](CCC(N)=O)NC(=O)[C@@H](Cc1ccccc1)NC(=O)CCOCCOCCOCCOCCNC(=O)[C@H](CCCCNC(=O)OC1CCCC2C=NN=C(c3ccc(CNC(=O)CCCCC[N+]4=C(/C=C/C=C/C=C5N(C)c6ccc(S(=O)(=O)O)cc6C5(C)C)C(C)(C)c5cc(S(=O)(=O)[O-])ccc54)cc3)C2CC1)NC(=O)CN1CCN(CC(=O)O)CCN(CC(=O)O)CCN(CC(=O)O)CC1)C(C)C` (some centres unmarked) [Compound 15], which “Ratio Compound/NeoB (IC50)” value (GRPR) is on record?
A: 11.2

Q: For `CC(C)CC(CC(C)C)NC(=O)[C@H](Cc1c[nH]cn1)NC(=O)CNC(=O)[C@@H](NC(=O)[C@H](C)NC(=O)[C@H](Cc1c[nH]c2ccccc12)NC(=O)[C@H](CCC(N)=O)NC(=O)[C@@H](Cc1ccccc1)NC(=O)CCOCCOCCOCCOCCNC(=O)[C@H](CCCCNC(=O)CCOCCOCCOCCOCCNC(=O)OC1CCCC2C=NN=C(c3ccc(CNC(=O)CCCCC[N+]4=C(/C=C/C=C/C=C5N(C)c6ccc(S(=O)(=O)O)cc6C5(C)C)C(C)(C)c5cc(S(=O)(=O)[O-])ccc54)cc3)C2CC1)NC(=O)CN1CCN(CC(=O)O)CCN(CC(=O)O)CCN(CC(=O)O)CC1)C(C)C` (some centres unmarked) [[^111In]In-13, metal not drawn], which “Stability in PBS (%) 30 min” value [1] is on record?
A: 87.4%

Q: What about the “Stability in PBS (%) 1 h” value [1] of the same molecule?
A: 87.5%

Q: And the “Stability in PBS (%) 2 h” value [1]?
A: 86.2%

Q: What about the “Stability in PBS (%) 4 h” value [1] of the same molecule?
A: 84.4%

Q: And the “Stability in Mouse Serum (%) 30 min” value [2]?
A: 98.1%

Q: What about the “Stability in Mouse Serum (%) 1 h” value [2] of the same molecule?
A: 97.9%

Q: And the “Stability in Mouse Serum (%) 2 h” value [2]?
A: 97.6%

Q: What about the “Stability in Mouse Serum (%) 4 h” value ([2]; 4 h) of the same molecule?
A: 97.3%

Q: What about the “Protein-Bound Fraction at 4 h (%)” value ([2]; mouse serum, 4 h) of the same molecule?
A: 5.6%

Q: And the logD [3]?
A: -1.8 ± 0.01

Q: For `CC(C)CC(CC(C)C)NC(=O)[C@H](Cc1c[nH]cn1)NC(=O)CNC(=O)[C@@H](NC(=O)[C@H](C)NC(=O)[C@H](Cc1c[nH]c2ccccc12)NC(=O)[C@H](CCC(N)=O)NC(=O)[C@@H](Cc1ccccc1)NC(=O)COCC(=O)Nc1ccc(CNC(=O)[C@H](CCCCNC(=O)OC2CCCC3C=NN=C(c4ccc(CNC(=O)CCCCC[N+]5=C(/C=C/C=C/C=C6N(C)c7ccc(S(=O)(=O)O)cc7C6(C)C)C(C)(C)c6cc(S(=O)(=O)[O-])ccc65)cc4)C3CC2)NC(=O)CN2CCN(CC(=O)O)CCN(CC(=O)O)CCN(CC(=O)O)CC2)cc1)C(C)C` (some centres unmarked) [[^111In]In-14, metal not drawn], which “Stability in PBS (%) 30 min” value [1] is on record?
A: 74.2%

Q: What about the “Stability in PBS (%) 1 h” value [1] of the same molecule?
A: 48.5%

Q: What about the “Stability in PBS (%) 2 h” value [1] of the same molecule?
A: 30.9%

Q: What about the “Stability in PBS (%) 4 h” value [1] of the same molecule?
A: 33.7%

Q: And the “Stability in Mouse Serum (%) 30 min” value [2]?
A: 94.6%

Q: What about the “Stability in Mouse Serum (%) 1 h” value [2] of the same molecule?
A: 94.1%

Q: And the “Stability in Mouse Serum (%) 2 h” value [2]?
A: 94.0%

Q: What about the “Stability in Mouse Serum (%) 4 h” value ([2]; 4 h) of the same molecule?
A: 94.1%

Q: And the fraction unbound at 4 h ([2]; mouse serum, 4 h, read-out: Protein-Bound Fraction at 4 h (%) (converted))?
A: 0.929

Q: And the logD [3]?
A: -1.52 ± 0.1
